Assay results: patent US7297508 (Takeda / Millennium, dated 2007)

Target: the molecule itself
Assay: X-ray crystal structure of apo FAPα (SEQ ID NO:3), homodimer

B1: FAPα (SEQ ID NO:3), secreted recombinant human fibroblast activation protein alpha, residues 27-760 of SEQ ID NO:1 with part of the gp67 signal sequence at the … (enzyme)
chain: ADPGRPSRVHNSEENTMRALTLKDILNGTFSYKTFFPNWISGQEYLHQSADNNIVLYNIETGQSYTILSNRTMKSVNASNYGLSPDRQFVYLESDYSKLWRYSYTATYYIYDLSNGEFVRGNELPRPIQYLCWSPVGSKLAYVYQNNIYLKQRPGDPPFQITFNGRENKIFNGIPDWVYEEEMLATKYALWWSPNGKFLAYAEFNDTDIPVIAYSYYGDEQYPRTINIPYPKAGAKNPVVRIFIIDTTYPAYVGPQEVPVPAMIASSDYYFSWLTWVTDERVCLQWLKRVQNVSVLSICDFREDWQTWDCPKTQEHIEESRTGWAGGFFVSTPVFSYDAISYYKIFSDKDGYKHIHYIKDTVENAIQITSGKWEAINIFRVTQDSLFYSSNEFEEYPGRRNIYRISIGSYPPSKKCVTCHLRKERCQYYTASFSDYAKYYALVCYGPGIPISTLHDGRTDQEIKILEENKELENALKNIQLPKEEIKKLEVDEITLWYKMILPPQFDRSKKYPLLIQVYGGPCSQSVRSVFAVNWISYLASKEGMVIALVDGRGTAFQGDKLLYAVYRKLGVYEVEDQITAVRKFIEMGFIDEKRIAIWGWSYGGYVSSLALASGTGLFKCGIAVAPVSSWEYYASVYTERFMGLPTKDDNLEHYKNSTVMARAEYFRNVDYLLIHGTADDNVHFQNSAQIAKALVNAQVDFQAMWYSDQNHGLSGLSTNHLYTHMTHFLKQCFSLSDHHHHHH
modifications: three Asn residues (chain A) or five Asn residues (chain B) carry covalently linked sugar molecules; positions not given
notes: Only residues 39-757 are seen in the structure; Expressed in Hi5 insect cells; also called Seprase; apo FAPα
**Q.** Does B1 bind?
**A.** binds
